Laboratory results taken from patent US20200341015A1.

B1: human Rab escort protein 1 (REP1) (protein, UniProt P24386 1-653, looked up)
chain: MADTLPSEFDVIVIGTGLPESIIAAACSRSGRRVLHVDSRSYYGGNWASFSFSGLLSWLKEYQENSDIVSDSPVWQDQILENEEAIALSRKDKTIQHVEVFCYASQDLHEDVEEAGALQKNHALVTSANSTEAADSAFLPTEDESLSTMSCEMLTEQTPSSDPENALEVNGAEVTGEKENHCDDKTCVPSTSAEDMSENVPIAEDTTEQPKKNRITYSQIIKEGRRFNIDLVSKLLYSRGLLIDLLIKSNVSRYAEFKNITRILAFREGRVEQVPCSRADVFNSKQLTMVEKRMLMKFLTFCMEYEKYPDEYKGYEEITFYEYLKTQKLTPNLQYIVMHSIAMTSETASSTIDGLKATKNFLHCLGRYGNTPFLFPLYGQGELPQCFCRMCAVFGGIYCLRHSVQCLVVDKESRKCKAIIDQFGQRIISEHFLVEDSYFPENMCSRVQYRQISRAVLITDRSVLKTDSDQQISILTVPAEEPGTFAVRVIELCSSTMTCMKGTYLVHLTCTSSKTAREDLESVVQKLFVPYTEMEIENEQVEKPRILWALYFNMRDSSDISRSCYNDLPSNVYVCSGPDCGLGNDNAVKQAETLFQEICPNEDFCPPPPNPEDIILDGDSLQPEASESSAIPEANSETFKESTNLGNLEESSE

Key:
Experiment in all cases: cell-based or functional assay
[1] = molecular target: recombinant human Rab6A (Jena Biosciences) (human) (UniProt P20340)
Chain of UniProt P20340 (P20340 whole entry): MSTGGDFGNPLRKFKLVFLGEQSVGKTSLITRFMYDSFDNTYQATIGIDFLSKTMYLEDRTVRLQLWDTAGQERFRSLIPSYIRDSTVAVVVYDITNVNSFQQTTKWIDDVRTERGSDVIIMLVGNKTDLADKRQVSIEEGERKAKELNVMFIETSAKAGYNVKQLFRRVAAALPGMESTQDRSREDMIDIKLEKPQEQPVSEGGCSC

[2] = molecular target: recombinant human Rab27A (Abnova Corporation) (human) (UniProt P51159)
Chain of UniProt P51159 (P51159 whole entry): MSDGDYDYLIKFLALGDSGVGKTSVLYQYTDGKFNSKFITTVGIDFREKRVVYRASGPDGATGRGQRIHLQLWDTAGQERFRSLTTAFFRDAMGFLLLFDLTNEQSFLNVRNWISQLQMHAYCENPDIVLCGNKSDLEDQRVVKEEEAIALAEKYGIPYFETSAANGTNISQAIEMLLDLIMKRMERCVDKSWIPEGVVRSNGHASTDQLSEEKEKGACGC

[3] = molecular target: recombinant human Rab6A (Jena Biosciences) (human) (UniProt P20340); remark: listed apart in the source

Molecule	band intensity of biotinylated Rab6a in positive controls, fold against the Rab27a data of FIG. 2 [1]	band density values of biotinylated Rab substrate, condition 4 [2]	band density values of biotinylated Rab substrate, condition 7 [2]	baseline biotin incorporation in untransduced samples (band density) [2]	best-fit top of the curve, biotin incorporation against MOI of rAAV2/2-REP1 (4-PL) [2]	band density of biotinylated substrate, fold against Rab27a in matching conditions [3]	band density values of biotinylated Rab substrate, condition 12 [3]	band density values of biotinylated Rab substrate, condition 15 [3]	baseline biotin incorporation in untransduced samples (band density) [3]	best-fit top of the curve, biotin incorporation against MOI of rAAV2/2-REP1 (4-PL) [3]	biotinylated substrate, fold against Rab27a (untransduced 293 lysate) [3]	strength of the WB signal of biotinylated Rab6a, fold against the Rab27a data of FIG. 2 (AAV-REP1 transduced cells) [3]
recombinant fish His-REP1 (Jena Biosciences)	100 fold	–	–	–	–	–	–	–	–	–	–	–
B1	–	0.8	0.3	0.577 a.u.	53.8 a.u.	< 2.5 fold	1.8	0.75	5.01 a.u.	92.8 a.u.	2.5 fold	10 fold
